Where two headings read alike, the source gives them in different places.
What was measured:
[1] = biological target: T1, HCV ORFs (Gal4-DB fusions) (Hepatitis C virus genotype 1b, UniProt Q9WMX2); type: binding, HCV genotype 1b, isolate con1; conditions: human protein as prey
T1 construct: expressed in transfected cells; host or cells: Saccharomyces cerevisiae MAV203 (IMAP1) / AH109 (IMAP2)

[2] = system: HCV ORFs (Gal4-DB fusions); type: binding, HCV genotype 1b, isolate con1; conditions: human protein listed by gene symbol; the value names the HCV protein it interacts with
HCV proteins = biological target: T2, HCV proteins (Hepatitis C virus genotype 1b, UniProt Q9WMX2); test: Validation by Y2H pairwise matrices; type: binding;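 note: yeast two-hybrid pairwise tests of interactions first found in Y2H screens of HCV bait proteins against human cDNA libraries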
T2 construct: expressed in transfected cells

[3] = validation of interaction with HCV protein NS3
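Throughout, for IMAP Y2H IMAP1 (number of IST): yeast two-hybrid screens using HCV genotype 1b proteins fused to Gal4-DB as baits against prey cDNA libraries from human spleen and foetal brain, IMAP1 via transformation and IMAP2 via mating.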
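Throughout, for Interaction with viral protein: yeast two-hybrid screens using HCV genotype 1b proteins fused to Gal4-DB as baits against prey cDNA libraries from human spleen and foetal brain, IMAP1 via transformation and IMAP2 via mating.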

| Molecule | IMAP Y2H IMAP1 (number of IST) ([1]; HCV protein NS3 as bait) | Interaction with viral protein [2] | Y2H matrices (HCV proteins; [3]) | IMAP Y2H IMAP1 (number of IST) ([1]; HCV protein CORE as bait) | Y2H matrices (HCV proteins; validation of interaction with HCV protein CORE) |
| --- | --- | --- | --- | --- | --- |
| SPON1 (protein, UniProt Q9HCB6 29-807, looked up) Spondin-1: FSDETLDKVPKSEGYCSRILRAQGTRREGYTEFSLRVEGDPDFYKPGTSYRVTLSAAPPSYFRGFTLIALRENREGDKEEDHAGTFQIIDEEETQFMSNCPVAVTESTPRRRTRIQVFWIAPPAGTGCVILKASIVQKRIIYFQDEGSLTKKLCEQDSTFDGVTDKPILDCCACGTAKYRLTFYGNWSEKTHPKDYPRRANHWSAIIGGSHSKNYVLWEYGGYASEGVKQVAELGSPVKMEEEIRQQSDEVLTVIKAKAQWPAWQPLNVRAAPSAEFSVDRTRHLMSFLTMMGPSPDWNVGLSAEDLCTKECGWVQKVVQDLIPWDAGTDSGVTYESPNKPTIPQEKIRPLTSLDHPQSPFYDPEGGSITQVARVVIERIARKGEQCNIVPDNVDDIVADLAPEEKDEDDTPETCIYSNWSPWSACSSSTCDKGKRMRQRMLKAQLDLSVPCPDTQDFQPCMGPGCSDEDGSTCTMSEWITWSPCSISCGMGMRSRERYVKQFPEDGSVCTLPTEETEKCTVNEECSPSSCLMTEWGEWDECSATCGMGMKKRHRMIKMNPADGSMCKAETSQAEKCMMPECHTIPCLLSPWSEWSDCSVTCGKGMRTRQRMLKSLAELGDCNEDLEQVEKCMLPECPIDCELTEWSQWSECNKSCGKGHVIRTRMIQMEPQFGGAPCPETVQRKKCRIRKCLRNPSIQKLRWREARESRRSEQLKEESEGEQFPGCRMRPWTAWSECTKLCGGGIQERYMTVKKRFKSSQFTSCKDKKEIRACNVHPC | 1 | NS3 | + |  |  |
| PLSCR1 (protein, UniProt O15162 1-318, looked up) Phospholipid scramblase 1: MDKQNSQMNASHPETNLPVGYPPQYPPTAFQGPPGYSGYPGPQVSYPPPPAGHSGPGPAGFPVPNQPVYNQPVYNQPVGAAGVPWMPAPQPPLNCPPGLEYLSQIDQILIHQQIELLEVLTGFETNNKYEIKNSFGQRVYFAAEDTDCCTRNCCGPSRPFTLRIIDNMGQEVITLERPLRCSSCCCPCCLQEIEIQAPPGVPIGYVIQTWHPCLPKFTIQNEKREDVLKISGPCVVCSCCGDVDFEIKSLDEQCVVGKISKHWTGILREAFTDADNFGIQFPLDLDVKMKAVMIGACFLIDFMFFESTGSQEQKSGVW |  | CORE |  | 1 | + |
| SRPX2 (protein, UniProt O60687 24-465, looked up) Sushi repeat-containing …: TWYAGSGYYPDESYNEVYAEEVPQAPALDYRVPRWCYTLNIQDGEATCYSPKGGNYHSSLGTRCELSCDRGFRLIGRRSVQCLPSRRWSGTAYCRQMRCHALPFITSGTYTCTNGVLLDSRCDYSCSSGYHLEGDRSRICMEDGRWSGGEPVCVDIDPPKIRCPHSREKMAEPEKLTARVYWDPPLVKDSADGTITRVTLRGPEPGSHFPEGEHVIRYTAYDRAYNRASCKFIVKVQVRRCPTLKPPQHGYLTCTSAGDNYGATCEYHCDGGYDRQGTPSRVCQSSRQWSGSPPICAPMKINVNVNSAAGLLDQFYEKQRLLIISAPDPSNRYYKMQISMLQQSTCGLDLRHVTIIELVGQPPQEVGRIREQQLSANIIEELRQFQRLTRSYFNMVLIDKQGIDRDRYMEPVTPEEIFTFIDDYLLSNQELTQRREQRDICE | 1 | NS3 | + |  |  |
| TBC1D2B (protein, UniProt Q9UPU7 1-963, looked up) TBC1 domain family member 2B: MPGAGARAEEGGGGGEGAAQGAAAEPGAGPAREPARLCGYLQKLSGKGPLRGYRSRWFVFDARRCYLYYFKSPQDALPLGHLDIADACFSYQGPDEAAEPGTEPPAHFQVHSAGAVTVLKAPNRQLMTYWLQELQQKRWEYCNSLDMVKWDSRTSPTPGDFPKGLVARDNTDLIYPHPNASAEKARNVLAVETVPGELVGEQAANQPAPGHPNSINFYSLKQWGNELKNSMSSFRPGRGHNDSRRTVFYTNEEWELLDPTPKDLEESIVQEEKKKLTPEGNKGVTGSGFPFDFGRNPYKGKRPLKDIIGSYKNRHSSGDPSSEGTSGSGSVSIRKPASEMQLQVQSQQEELEQLKKDLSSQKELVRLLQQTVRSSQYDKYFTSSRLCEGVPKDTLELLHQKDDQILGLTSQLERFSLEKESLQQEVRTLKSKVGELNEQLGMLMETIQAKDEVIIKLSEGEGNGPPPTVAPSSPSVVPVARDQLELDRLKDNLQGYKTQNKFLNKEILELSALRRNAERRERDLMAKYSSLEAKLCQIESKYLILLQEMKTPVCSEDQGPTREVIAQLLEDALQVESQEQPEQAFVKPHLVSEYDIYGFRTVPEDDEEEKLVAKVRALDLKTLYLTENQEVSTGVKWENYFASTVNREMMCSPELKNLIRAGIPHEHRSKVWKWCVDRHTRKFKDNTEPGHFQTLLQKALEKQNPASKQIELDLLRTLPNNKHYSCPTSEGIQKLRNVLLAFSWRNPDIGYCQGLNRLVAVALLYLEQEDAFWCLVTIVEVFMPRDYYTKTLLGSQVDQRVFRDLMSEKLPRLHGHFEQYKVDYTLITFNWFLVVFVDSVVSDILFKIWDSFLYEGPKVIFRFALALFKYKEEEILKLQDSMSIFKYLRYFTRTILDARKLISISFGDLNPFPLRQIRNRRAYHLEKVRLELTELEAIREDFLRERDTSPDKGELVSDEEEDT | 1 | NS3 | + |  |  |
| THAP1 (protein, UniProt Q9NVV9 1-213, looked up) THAP domain-containing …: MVQSCSAYGCKNRYDKDKPVSFHKFPLTRPSLCKEWEAAVRRKNFKPTKYSSICSEHFTPDCFKRECNNKLLKENAVPTIFLCTEPHDKKEDLLEPQEQLPPPPLPPPVSQVDAAIGLLMPPLQTPVNLSVFCDHNYTVEDTMHQRKRIHQLEQQVEKLRKKLKTAQQRCRRQERQLEKLKEVVHFQKEKDDVSERGYVILPNDYFEIVEVPA | 1 | NS3 | + |  |  |
| SSX2IP (protein, UniProt Q9Y2D8 1-614, looked up) Afadin- and …: MGDWMTVTDPGLSSESKTISQYTSETKMSPSSLYSQQVLCSSIPLSKNVHSFFSAFCTEDNIEQSISYLDQELTTFGFPSLYEESKGKETKRELNIVAVLNCMNELLVLQRKNLLAQENVETQNLKLGSDMDHLQSCYSKLKEQLETSRREMIGLQERDRQLQCKNRNLHQLLKNEKDEVQKLQNIIASRATQYNHDMKRKEREYNKLKERLHQLVMNKKDKKIAMDILNYVGRADGKRGSWRTGKTEARNEDEMYKILLNDYEYRQKQILMENAELKKVLQQMKKEMISLLSPQKKKPRERVDDSTGTVISDVEEDAGELSRESMWDLSCETVREQLTNSIRKQWRILKSHVEKLDNQVSKVHLEGFNDEDVISRQDHEQETEKLELEIQQCKEMIKTQQQLLQQQLATAYDDDTTSLLRDCYLLEEKERLKEEWSLFKEQKKNFERERRSFTEAAIRLGLERKAFEEERASWLKQQFLNMTTFDHQNSENVKLFSAFSGSSDWDNLIVHSRQPQKKPHSVSNGSPVCMSKLTKSLPASPSTSDFCQTRSCISEHSSINVLNITAEEIKPNQVGGECTNQKWSVASRPGSQEGCYSGCSLSYTNSHVEKDDLP | 3 | NS3 | + |  |  |
